In article PMC5090061:

Experiments:
[1] = molecular target: GMPCPP-stabilized microtubules of porcine brain tubulin (porcine) (UniProt P02550)
[2] = molecular target: Unpolymerized GDP-tubulin (porcine brain) (porcine) (UniProt P02550)
[3] = molecular target: GMPCPP-stabilized microtubules of porcine brain tubulin (porcine) (UniProt P02550); assay: single-molecule TIRF microscopy; rhodamine-labelled GMPCPP-stabilized microtubules stuck onto the flow-chamber surface; 1–6 nM MCAK-GFP or GFP-labelled mutant in BRB20 pH 6.9, 75 mM KCl, 1 mM ATP, 0.05% Tween 20, 0.1 mg/ml BSA; 25°C; duration of GFP events at the microtubule end and on the lattice measured from kymographs

UniProt P02550, sequence (P02550 whole entry, looked up): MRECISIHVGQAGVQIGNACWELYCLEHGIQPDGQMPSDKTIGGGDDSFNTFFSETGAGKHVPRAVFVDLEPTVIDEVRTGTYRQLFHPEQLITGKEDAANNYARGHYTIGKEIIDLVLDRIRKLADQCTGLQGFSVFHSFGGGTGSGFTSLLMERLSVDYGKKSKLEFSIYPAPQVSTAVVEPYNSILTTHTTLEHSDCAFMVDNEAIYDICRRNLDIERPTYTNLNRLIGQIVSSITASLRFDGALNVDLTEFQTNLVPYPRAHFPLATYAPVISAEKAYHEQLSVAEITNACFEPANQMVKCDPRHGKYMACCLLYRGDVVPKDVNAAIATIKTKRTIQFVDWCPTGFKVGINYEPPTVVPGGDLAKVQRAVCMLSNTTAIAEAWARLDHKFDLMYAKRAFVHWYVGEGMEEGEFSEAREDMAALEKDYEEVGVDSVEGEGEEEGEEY

| depolymerization rate of individual GMPCPP microtubules with 40 nM MCAK [1] | microtubule-stimulated ATPase (0.1 µM MCAK, 10 µM GMPCPP-stabilized microtubules) [1] | tubulin-stimulated ATPase (0.1 µM MCAK, 10 µM unpolymerized GDP-tubulin) [2] | microtubule-end residence time [3] | percent of microtubule end interaction events longer than 2 s [3] | Binder |
| --- | --- | --- | --- | --- | --- |
| 2.12 μm min^−1 | 3.16 s⁻¹ | 0.204 s⁻¹ | 2.03 s | 31.5% | Full-length human MCAK-his6-EGFP (wild type) (natural protein) MAMDSSLQARLFPGLAIKIQRSNGLIHSANVRTVNLEKSCVSVEWAEGGATKGKEIDFDDVAAINPELLQLLPLHPKDNLPLQENVTIQKQKRRSVNSKIPAPKESLRSRSTRMSTVSELRITAQENDMEVELPAAANSRKQFSVPPAPTRPSCPAVAEIPLRMVSEEMEEQVHSIRGSSSANPVNSVRRKSCLVKEVEKMKNKREEKKAQNSEMRMKRAQEYDSSFPNWEFARMIKEFRATLECHPLTMTDPIEEHRICVCVRKRPLNKQELAKKEIDVISIPSKCLLLVHEPKLKVDLTKYLENQAFCFDFAFDETASNEVVYRFTARPLVQTIFEGGKATCFAYGQTGSGKTHTMGGDLSGKAQNASKGIYAMASRDVFLLKNQPCYRKLGLEVYVTFFEIYNGKLFDLLNKKAKLRVLEDGKQQVQVVGLQEHLVNSADDVIKMIDMGSACRTSGQTFANSNSSRSHACFQIILRAKGRMHGKFSLVDLAGNERGADTSSADRQTRMEGAEINKSLLALKECIRALGQNKAHTPFRESKLTQVLRDSFIGENSRTCMIATISPGISSCEYTLNTLRYADRVKELSPHSGPSGEQLIQMETEEMEACSNGALIPGNLSKEEEELSSQMSSFNEAMTQIRELEEKAMEELKEIIQQGPDWLELSEMTEQPDYDLETFVNKAESALAQQAKHFSALRDVIKALRLAMQLEEQASRQISSKKRPQ |
| 0.13 μm min^−1 | 0.72 s⁻¹ | 0.184 s⁻¹ | 0.59 s | 0% | Full-length human MCAK-his6-EGFP K524A (natural protein) MAMDSSLQARLFPGLAIKIQRSNGLIHSANVRTVNLEKSCVSVEWAEGGATKGKEIDFDDVAAINPELLQLLPLHPKDNLPLQENVTIQKQKRRSVNSKIPAPKESLRSRSTRMSTVSELRITAQENDMEVELPAAANSRKQFSVPPAPTRPSCPAVAEIPLRMVSEEMEEQVHSIRGSSSANPVNSVRRKSCLVKEVEKMKNKREEKKAQNSEMRMKRAQEYDSSFPNWEFARMIKEFRATLECHPLTMTDPIEEHRICVCVRKRPLNKQELAKKEIDVISIPSKCLLLVHEPKLKVDLTKYLENQAFCFDFAFDETASNEVVYRFTARPLVQTIFEGGKATCFAYGQTGSGKTHTMGGDLSGKAQNASKGIYAMASRDVFLLKNQPCYRKLGLEVYVTFFEIYNGKLFDLLNKKAKLRVLEDGKQQVQVVGLQEHLVNSADDVIKMIDMGSACRTSGQTFANSNSSRSHACFQIILRAKGRMHGKFSLVDLAGNERGADTSSADRQTRMEGAEINKSLLALAECIRALGQNKAHTPFRESKLTQVLRDSFIGENSRTCMIATISPGISSCEYTLNTLRYADRVKELSPHSGPSGEQLIQMETEEMEACSNGALIPGNLSKEEEELSSQMSSFNEAMTQIRELEEKAMEELKEIIQQGPDWLELSEMTEQPDYDLETFVNKAESALAQQAKHFSALRDVIKALRLAMQLEEQASRQISSKKRPQ |
| 0.1 μm min^−1 | 0.16 s⁻¹ | 0.195 s⁻¹ | 0.59 s | 0.9% | Full-length human MCAK-his6-EGFP E525A (natural protein) MAMDSSLQARLFPGLAIKIQRSNGLIHSANVRTVNLEKSCVSVEWAEGGATKGKEIDFDDVAAINPELLQLLPLHPKDNLPLQENVTIQKQKRRSVNSKIPAPKESLRSRSTRMSTVSELRITAQENDMEVELPAAANSRKQFSVPPAPTRPSCPAVAEIPLRMVSEEMEEQVHSIRGSSSANPVNSVRRKSCLVKEVEKMKNKREEKKAQNSEMRMKRAQEYDSSFPNWEFARMIKEFRATLECHPLTMTDPIEEHRICVCVRKRPLNKQELAKKEIDVISIPSKCLLLVHEPKLKVDLTKYLENQAFCFDFAFDETASNEVVYRFTARPLVQTIFEGGKATCFAYGQTGSGKTHTMGGDLSGKAQNASKGIYAMASRDVFLLKNQPCYRKLGLEVYVTFFEIYNGKLFDLLNKKAKLRVLEDGKQQVQVVGLQEHLVNSADDVIKMIDMGSACRTSGQTFANSNSSRSHACFQIILRAKGRMHGKFSLVDLAGNERGADTSSADRQTRMEGAEINKSLLALKACIRALGQNKAHTPFRESKLTQVLRDSFIGENSRTCMIATISPGISSCEYTLNTLRYADRVKELSPHSGPSGEQLIQMETEEMEACSNGALIPGNLSKEEEELSSQMSSFNEAMTQIRELEEKAMEELKEIIQQGPDWLELSEMTEQPDYDLETFVNKAESALAQQAKHFSALRDVIKALRLAMQLEEQASRQISSKKRPQ |
| 0.29 μm min^−1 | 0.66 s⁻¹ | 0.205 s⁻¹ | 0.65 s | 0% | Full-length human MCAK-his6-EGFP R528A (natural protein) MAMDSSLQARLFPGLAIKIQRSNGLIHSANVRTVNLEKSCVSVEWAEGGATKGKEIDFDDVAAINPELLQLLPLHPKDNLPLQENVTIQKQKRRSVNSKIPAPKESLRSRSTRMSTVSELRITAQENDMEVELPAAANSRKQFSVPPAPTRPSCPAVAEIPLRMVSEEMEEQVHSIRGSSSANPVNSVRRKSCLVKEVEKMKNKREEKKAQNSEMRMKRAQEYDSSFPNWEFARMIKEFRATLECHPLTMTDPIEEHRICVCVRKRPLNKQELAKKEIDVISIPSKCLLLVHEPKLKVDLTKYLENQAFCFDFAFDETASNEVVYRFTARPLVQTIFEGGKATCFAYGQTGSGKTHTMGGDLSGKAQNASKGIYAMASRDVFLLKNQPCYRKLGLEVYVTFFEIYNGKLFDLLNKKAKLRVLEDGKQQVQVVGLQEHLVNSADDVIKMIDMGSACRTSGQTFANSNSSRSHACFQIILRAKGRMHGKFSLVDLAGNERGADTSSADRQTRMEGAEINKSLLALKECIAALGQNKAHTPFRESKLTQVLRDSFIGENSRTCMIATISPGISSCEYTLNTLRYADRVKELSPHSGPSGEQLIQMETEEMEACSNGALIPGNLSKEEEELSSQMSSFNEAMTQIRELEEKAMEELKEIIQQGPDWLELSEMTEQPDYDLETFVNKAESALAQQAKHFSALRDVIKALRLAMQLEEQASRQISSKKRPQ |
